Assay results reported in patent US20200317791A1 (published 2020).

Target: T1, peptide on HLA-C*06:02 (human)
T1 peptide: TRATKMQVI
Experiment: activation reporter or marker

B1: TCR-TRAT (TCR, V domains shown)
Valpha: GEDVEQSLFLSVREGDSSVINCTYTDSSSTYLYWYKQEPGAGLQLLTYIFSNMDMKQDQRLTVLLNKKDKHLSLRIADTQTGDSAIYFCAESSNLSGNTPLVFGKGTRLSVIA
Vbeta: AAGVIQSPRHLIKEKRETATLKCYPIPRHDTVYWYQQGPGQDPQFLISFYEKMQSDKGSIPDRFSAQQFSDYHSELNMSSLELGDSALYFCASGLAGITGELFFGEGSRLTVL
  binding result: recognises
